Source: patent US20110293610A1 (published 2011)
Numbering of substitutions follows the chain as printed.

B1: I082G01 (scFv)
scFv: QMQLVQSGAEVKKPGASVKVSCKASGYTFTSYYMHWVRQAPGQGLEWMGLVHPNDGSVNYAQKFKGRVTMTRDTSTSTVYMELSSLRSDDTAVYYCARDRGSGWPNWYFDLWGQGTLVTVSSGGGGSGGGGSGGGGSDIQMTQSPSTLSASIGDRVTITCRASEGIYHWLAWYQQKPGKAPKLLIYKASSLASGAPSRFSGSGSGTDFTLTISSLQPDDFATYYCQQYSNYPLTFGGGTKLEIKH
B2: I080G07 (scFv)
scFv: QVQLVQSGAEVKKPGASVKVSCKASGYTFTSYAMHWVRQAPGQRLEWMGWINAGNGNTKYSQKFQGRVTITRDTSASTAYMELSSLRSEDTAVYYCAREGPGYYYGMDVWGQGTMVTVSSGGGGSGGGGSGGGGSALETTLTQSPGTLSLSPGERATLSCRASQAIGSNYLAWYQQKPGQPPSLLIYGASSRATGIPDRFSASGSGTDFTLTISRLEPEDFAVYYCQQYGSSITFGQGTRLEIKR
B3: I080B01 (scFv)
scFv: QVQLVQSGAEVKKPGASVKVSCKASGYTFTNYYMHWVRQAPGQGLEWMGIINPRDVSTTYAQKFQGRATMTRDTSTSTVYMELNSLRSEDTAVYYCAREYSGYHYVEGGSYAMDVWGQGTMVTVSSGGGGSGGGGSGGGGSALSYVLTQPPSASGTPGQRVTITCSGSSSNIGNYYVNWYQQVSGTAPKLIIYRNNQRPSGVPDRFSGSKSGASASLAISGLRSEDEADYFCAAWDDSLREFVFGTGTKVTVLG
B4: I079B05 (scFv)
scFv: GVQLVESGGGLVKPGGSLRLSCATSGFRFSDYAMTWVRQAPGKGLEWVSSITGSGGGTHYAGSVRGRFTISRDNSKNTVYLQMNNLRPEDTAVYYCASFVLDYWGKGTLVTVSSGGGGSGGGGSGGGGSQSVLTQPASVSGSPGQSITISCTGTSSDVGGYNYVSWYQQHPGKAPKLMIYEGSKRPSGVSNRFSGSKSGNTASLTISGLQAEDEADYYCSSYTTRSTRVFGGGTKLTVLG
B5: I080G09 (scFv)
scFv: QVQLVQSGAEVKKPGASVRVSCKSSGYTFTNYGISWVRQAPGQGLEWMGWISNNNGKTYYAQKVQGRVTMTTDTSTSTDYMELRGLRSDDTAIYYCARDNGGGTIGFDYWGQGTLVTVSSGGGGSGGGGSGGGGSAQSVLTQPPSVSGAPGQRVTISCTGSSSNIGADYDVHWYQLLPGTAPKLLIYGNTNRPSGVPDRFSGSKSGTSASLTIAGLQAEDEADYYCQSYDSSLSGSVVFGGGTKLTVLG
B6: I079F08 (scFv)
scFv: QMQLVQSGGGVVQPGRSLRLSCAASGFTFSSYGMHWVRQAPGKGLEWVAVISYDGSIKYYADSVKGRFTISRDNSKNTLYLQMNSLRAEDTAVYYCARYYYHSSGSDAFDIWGQGTLVTVPSGGGGSGGGGSGGGGSQSVLTQPPSASGTPGQRVTISCSGSSSNIGSNTVNWYQRLPGAAPQLLIYNNNQRPSGVPDRFSGSKSGTSASLAISGLQSEDEADYYCAAWDDSLNGWVFGGGTKLTVLG
B7: I079F06 (scFv)
scFv: QVQLVESGGGLVQPGGSLRLSCAASGFTFSSYWMSWVRQAPGKGLEWVANIKQDGSEKYYVDSVKGRFTISRDNAKNSLYLQMNSLRAEDTAVYYCARDNLHAAFDIWGRGTLVTVSGGGGGSGGGGSGGGGSDIQMTQSPSTLSASIGDRVTITCRASEGIYHWLAWYQQKPGKAPKLLIYKASSLASGAPSRFSGSGSGTDFTLTISSLQPDDFATYYCQQYSNYPLTFGGGTKLEIKR
B8: I084C11 (scFv)
scFv: GVQLEESGAEVKKPGASVKVSCKASGYTFTGYYMHWVRQAPGQGLEWMGWINPNSGGTNYAQKFQGRVTMTRDTSISTAYMELSRLRSDDTAVYYCARGNAWGAFDIWGRSTLVTVSSGGGGSGGGGSGGGGSQSVLTQPASVSGSPGQSITISCTGTSSDVGGYNYVSWYQQHPGKAPKLMIYEGSKRPSGVSNRFSGSKSGNTASLTVSGLQAEDEADYYCSSYTTRSTRVFGGGTKLTVLG
B9: I080A08 (scFv)
scFv: QVTLKESGGDLVQPGGSLRLSCAASGLTFMSYAMTWVRQAPGKGLEWVSSISGSGDNTYYGDSVRGRFTISRDNSKNTLFLQLNSLRAEDTAFYYCAKVHSTGYAFENWGRGTLVTVSSGGGGSGGGGSGGGGSAQSVLTQPPSVSGAPGQRVTISCTGSSSNIGAGYNVHWYQQLPGTAPRLLISSNTNRPSGVPDRFSGSKSGTSASLAITGLQAEDEADYYCQSYDSSLSGFVFGTGTKVTVLG
B10: I084A01 (scFv)
scFv: QVQLVQSGGGLVQPGGSLRLSCAASGFTFSSYEMNWVRQAPGKGLEWVSYISSSGSTTYYADSVKGRFTISRDNAKNSLYLQMNSLRAEDTAVYYCARDTTDYWGQGTMVTVSSGGGGSGGGGSGGGGSQSVLTQPPSASGTPGQRVTISCSGSSSNIGSNTVNWYQRLPGAAPQLLIYNNDQRPSGIPDRFSGSKSGTSGSLVISGLQSEDEADYYCASWDDSLNGRVFGGGTKLTVLG
B11: I084B02 (scFv)
scFv: QVQLVQSGGGLVQPGGSLRLSCAASGFTFSSYEMNWVRQAPGKGLEWVSYISSSGSTTYYADSVKGRFTISRDNAKNSLYLQMNSLRAEDTAVYYCARDTTDYWGQGTLVTVSSGGGGSGGGGSGGGGSDIVMTQSPSTLSASVGDRVTITCRASQGISSWLAWYQQKPGRAPKVLIYKASTLESGVPSRFSGSGSGTDFTLTISSLQPEDFATYYCQQSYSTPWTFGQGTKLEIKR
B12: I080D03 (scFv)
scFv: QVQLVQSGAELKQPGTSVKVSCKASGYSFSSYGVTWVRQAPGQGLEWMGWVSGNRGNTQYAQKFQDRVRMTTDTSTSTAYMELRSLRPDDTAVYFCARVGIKAAAVDNFEYWGRGTTVTVSSGGGGSGGGGSGGGGSAQSVLTQPPSASGTPGQRVTITCSGSSSNIGDYYVNWYQQVSGTTPKLIIYRDDQRPSGVPDRFSGSKSGASASLAISGLRSEDEANYFCAAWDDSLREFAFGTGTKVTVLG
B13: I080A03 (scFv)
scFv: QVQLQQSGAELKQPGTSVKVSCKASGYSFSCYDVNWVRQAPGQGLEWMGRINPNSGNTHYAQKFQDRVTMTTDTSTSTAYMELNSLRPDDTAVYFCARVGIKAAAVDNFEYWGRGTTVTVSSGGGGSGGGGSGGGGSAQSVLTQPPSASGTPGQRVTITCSGSSSNIGDYYVNWYQQVSGTTPKLIIYRDDQRPSGVPDRFSGSKSGASASLAISGLRSEDEANYFCAAWDDSLREFAFGTGTKVTVLG
B14: I083G03 (scFv)
scFv: B12 scFv with A92D
B15: I082A05 (scFv)
scFv: QVQLQQSGGGVVQPGRSLRLSCAASGFTYSSYAMHWVRQAPGKGLEWVAVISYDGSIKYYADSVKGRFTISRDNSKNTLYLQMNSLRAEDTAVYYCARDLDFDYWGKGTLVTVSSGGGGSGGGGSGGGGSQSVLTQPPSVSAAPGQKVTISCSGSTSNIGNNYVSWYQQHPGKAPKFMIYDVSKRPSGVSNRFSGSKSGNTASLTISGVQAEDEADYYCSSYTSASTVIFGGGTKLTVLG
B16: I079B12 (scFv)
scFv: EVQLVQSRGGVVQPGRSLRLSCAASGLTFSSYGMHWVRQAPGKGLEWVAVISYDGRNKYYADSVKGRFTTSRDNSKNTLYLQMNSLRAEDTAVYYCAKWTSSGAFDIWGRGTLVTVSSGGGGSGGGGSGGGGSDIQMTQSPSTLSASIGDRVTITCRASEGIYHWLAWYQQKPGKAPKLLIYKASSLASGAPSRFSGSGSGTDFTLTISSLQPDDFATYYCHQYSNYPLTFGGGTKLEIKR
B17: I082D07 (scFv)
scFv: B16 scFv with H222Q
B18: I082B08 (scFv)
scFv: QVQLVQSGAEVKKPGGSVKVSCKASAYTFTRYYMHWVRQAPGQGLEWMGIINPSGGRTSYAQKFQGRVTMTRDTSTSTVYMELSSLRSEDTAVYYCARDLGIAGTIYFDYWGKGTLVTVSSGGGGSGGGGSGGGGSQSVLTQPPSVSAAPGQKVTISCSGSTSNIGNNYVSWYQQHPGKAPKLMIYDVSKRPSGVPDRFSGSKSGNSASLDISGLQSEDEADYYCAAWDDSLSEFLFGTGTKLTVLG
B19: I079F06 (scFv)
scFv: B7 scFv

Each binder was assayed against T1, HIS-tagged B Lymphocyte Stimulator (human, UniProt Q9Y275 71-285) (assay: BIAcore, periplasmic scFv over high density HIS-BLyS surface).
T1 construct: Expressed in E. coli; also called HIS-B Lymphocyte Stimulator; histidine-tagged B Lymphocyte Stimulator; not shown: histidine tag from the pQE9 vector
Description: (§1) All BIAcore analysis was performed on BIAcore 2000 machines, using the BIAcore 2000 control software and evaluated using the BIAevaluation 3.0 software. A high density His-tagged B Lymphocyte Stimulator surface (>1000 RU HIS-B Lymphocyte Stimulator coupled) was prepared in flow cell 2 by amine coupling to a CM5 chip. A new CM5 chip was inserted into the BIAcore and a sensorgram started over flow cell 2 with HBS buffer at a flow rate of 5 μl/min. The NHS and EDC solution were mixed 1:1 before injecting 30 μl over the CM5 surface. Fifty μl HIS-B Lymphocyte Stimulator (at 10 μg/ml in Sodium acetate buffer, pH4) was injected and allowed to couple to the surface. Thirty μl of ethanolamine-HCl solution was then injected to block free NHS esters. Prior to using the chip, 10 μl of 4M Guanidine hydrochloride in HBS was injected over the surface to strip the surface of non-covalently bound B Lymphocyte Stimulator. A blank surface (no HIS-B Lymphocyte Stimulator) was also prepared over flow cell 1 so that non-specific binding effects can be subtracted from the HIS-B Lymphocyte Stimulator binding curves.
(§2) The 96-well plate containing periplasmic scFvs was secured inside the BIAcore. Two ml of 4M Guanidine hydrochloride in HBS was placed in a rack inside the BIAcore for regeneration of the HIS-B Lymphocyte Stimulator surface between samples. The sensorgram was run over flow cells 1 and 2 at a flow rate of […].
T1 sequence (Q9Y275 71-285): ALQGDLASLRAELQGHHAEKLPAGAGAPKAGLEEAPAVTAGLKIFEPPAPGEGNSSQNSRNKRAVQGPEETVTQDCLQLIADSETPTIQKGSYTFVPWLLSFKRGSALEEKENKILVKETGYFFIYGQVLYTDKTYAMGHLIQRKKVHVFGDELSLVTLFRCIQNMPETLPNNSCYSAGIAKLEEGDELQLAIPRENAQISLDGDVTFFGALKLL

Row | binding result | Binder
1 | binds | B1
2 | binds | B2
3 | binds | B3
4 | binds | B4
5 | binds | B5
6 | binds | B6
7 | binds | B7
8 | binds | B8
9 | binds | B9
10 | binds | B10
11 | binds | B11
12 | binds | B12
13 | binds | B13
14 | binds | B14
15 | binds | B15
16 | binds | B16
17 | binds | B17
18 | binds | B18

These binders were tested against T2, HIS-tagged B Lymphocyte Stimulator (human, UniProt Q9Y275 71-285) (assay: BIAcore, periplasmic scFv on high density HIS-BLyS surface).
T2 construct: Expressed in E. coli from pQE9 and purified; also called histidine-tagged B Lymphocyte Stimulator; HIS-B Lymphocyte Stimulator; not shown: histidine tag of the pQE9 vector
Description: as §1, §2
T2 sequence (Q9Y275 71-285): as above

Row | binding result | Binder
19 | binds | B19
